Publication PMC11130202

Biological target: Spa2(281-535) (S. cerevisiae (budding yeast)) (UniProt P23201)
Experiment: AUC; sedimentation velocity; 20 mM HEPES pH 7.4, 50 mM NaCl, 20 °C; Spa2(281-535) 18 μM, Spa2(1-535) 13 μM, Spa2(1-281) 17 μM

## Spa2(281-535) (from UniProt P23201 281-535) (domain or fragment)
  stoichiometry N: 2
